Test: soluble fraction after stress (log2 fold change); higher = more stays soluble; pooled small domains, quantitative proteomics
Details: stress: 50 degC
Outline: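 Custom libraries of small protein domains were pooled and measured in a high-throughput format, with quantitative proteomics as the read-out. Each library was stressed at 50°C. The value is the log2 fold change in the amount of each protein that stays soluble after stress, used as a measure of aggregation propensity; higher values mean more of the protein stays soluble.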

Sequence | soluble fraction (log2)
HMSRAARLALDALPDEWAQFAESRGLAGSAMAETWETFRDYWQAQPGQKGVKADWAATWRNWVRRETQNRG | -0.167
HMSARKVTVALHTRDHADRLRRLLKHEGVSADLVAARLSHKLTDHPIEVRVNEDDIPAVLRIIENIEIF | -1.31
HMGNIIITPNPASDFIKIISNSPIIKFGFYDIYGNTINKKFNDNSINISDLPVGMYLINLNERYFKLLK | -0.0951
HMDENDPYEILEIDRLASDDQVKAKYRALIRENHPDVLMAKGVPQEFIDLANRKMAVINAAYDRIEKEREF | -0.0184
HMSSQGQNTKTGTVTASALYVRSGAGTNYSQIGYLLKNTKVEIVGQTGSWYKIKFGSGTGYVSSKYIK | -0.652
HMGKPSSEELEALGRRTLEENVDVVEEILGGRDPKGKKIKYLEGLMMRALRGQETPEAVRRTLEELIFK | 0.0847
HMEFQEQLYRLRKQAGLSQEELSHIIGVSRQAVQKWEAGSARPDLDNLIALASHFKLSLDQLVGLT | -0.555
HMNIYFNIEDAVANAVVENGKMSAAIYEKNVDTGEVAKLAEVSMPVMGGNINITKTLLTKALISQLP | -0.384
HMGTPKMPLSLYLSMVENLRSLKRFALVNQQVKDGFVFFNDVAGIKRLQELLNYHNTGEKPSE | -1.39
HMDRRSTTLQDIYTRIDAEEISEALELIPKLGEIEFEQNRAEIAEAAGVRPAVLDKLRKQAAKQENNKK | -0.0355
HMGQARQSAIRELGNDPTSGKKITVRSGRYGPYVTDGEVNASLRKGDDPQTIDLDRAIELLAARREKLG | 0.13
HMLSKGDRVSWDTPQGRTQGEVVEKKTKDFEHDGQKFTASDDDPAFIVKSEKSGAEAAHKGSALNK | 0.0884
HMAPLEPLTDRETEMLVRLANGASNKVMARESFVSENTIKFHLKNIYAKLGVTSRLQAIAAARNQGLI | -0.891
HMKKMSFKEAFLKYVEIKDNPYNMESVKMLVSLQPLIVKAYSILGVDKVRRLNYVKTKIQDAIINGD | -1.9
HMRRARVAGKGHFTGEDAMAVYRELEALFGETETLYLPGHRPFEAVLSKLALIGVPEKNTVPYTFAFVET | -0.433
HMHDYYDSIDAVTHDKSYESNLVFALKLGYTETQLQKALLKLGKKAREDQILEELIRIQKSSKA | 0.114
HMGDTHKVPGVKGVNVEQAMDMLSRLDLKAVVIDSVYVKDKKLGTVIEQNPVEGSVVKPGRPIYLVVNSRS | 0.242
HMAQPIPSGADIRAAREAAGMTLRRFAEYIAGPDFSTWSRYETGKPIRVKNISPEVWQRVRKFIAQNKG | -0.0609
HMTEDTPIIVERVVADIDENVVAIVRKFKDAFKSITAQREIKKKLRSILWVNYQIKDQEVFDKAYQYIEMY | 0.0204

Sequence | soluble fraction (log2)
HMKFYIHEIIGFNAVDKVAGIVGKVININEDSPQKKLVVNYNGKEVFIPLVDEIVRKIDKQKNEVLITMP | 0.155
HMEKKPYGEMHNVMLTDEELEKLRHDYPAHFAEYIQRLSLHIDAKGARYKSHYAVIRKWLIADGVKA | -0.679
HMVDTEVFSRLLRKVLAGDVTSAIRILEELIVGGRELSQFVGDFTWYMRNLLLVKTSDNPEEA | -0.397
HMADEIQIGLQKAIQSLPEKQKLVFSMRYYDEIPYDEMSKILDMSVGTLKTNYHYAKQKIEDFLQNH | -1.05
HMSPDTREAILAAARTAFARDGYQTSLRGIARDAGVDPALVHHYFPDRATLFAKAVIESTAG | -0.00189
HMRGGWESLTDREREIAVLAAEGHSNRTIASTLFISDRTVQSHVSRALRALGVDSRTGIPSLVTTATR | -0.0688
HMAVELPLETTLDIVRKYARNQEVDRRAERVEAVSAEALQTLAPRGTKLASEIVEQAKTQVLEELA | 0.177
HMIDEQDLKKYILISTSVEELTDYLGATDRMLYDYLYSLKHVGQYWQLNERFLLDLYKLPNLVIVDKEDLE | -0.136
HMEAYLPVTVVSDGKILTGNLEKAGKNEKWLENVLSELKTDVKNTLLLTVDPKDGLIFYPKG | 0.0932
HMETLYGQIVNDIMEKIESNAWPVGYVIPTESDFQKQYGVSRATVRNAILKLAHLGYLVRKKGSGTYVTRP | -0.975
HMKISDLPAAQVYREIVHAWPKAAAYADLAPINNGGMQRWRDVVHEWVLRGYNPANLRGMLEWYKAGIPTR | -0.398
HMTVDTSELEEMIDDLIKEHPNEWERYSSGEKKVQGFFVGQVMKATSGQADGKAINQILSKRVKS | 0.354
HMKNKRERLGIISEILRMQVIGSQEELLDILRAKGYDVTQATLSRDLKVLKVAKTPLSNGAYKYVLPPQ | 0.0519
HMDETELLLQKAIATLPDKQRVVFNLKYFDEMKYEEMSELLETSVGALKASYHLAVKKIEQFFHDA | -0.643
HMDLPDFTSRERDILARVVQGDSNERIAASLGVSVSTVKTHIGNILRKTGQTNRVRLIVWATRHL | -1.72
HMLNLNEAEKSIYVLIKKNESNNLNKVKEDSNLSNKAWDKGIKNLVKNNLVKVVKSNEGLFIQLV | -0.345
HMSTFAQNLRALMEKRGVSQNELARSAGLTQSAINKILTGKTKQPGIDTTEAIARVLNVSVAQLIYT | -0.303
HMPFTLDGVNEGSRNDQAARMSGYLISKNLNMDFIKFFMQSWNRQNSPPLSQREINSVVDNVKRTHDRKNK | -1.18
HMLVMTDNVIKAINDLLNYEAAAGIKKKQRYTAYQIYKELSEQGVYHGSRRRMEEVVSKLRVERNQI | -2.78
